From patent US20230250154A1 (CYTONICS, published 2023)

Legend:
Experiment in all cases: cell-based or functional assay
[1] = target: T1, ADAMTS4 (human, UniProt O75173 213-685, limits assumed)
T1 sequence (looked up): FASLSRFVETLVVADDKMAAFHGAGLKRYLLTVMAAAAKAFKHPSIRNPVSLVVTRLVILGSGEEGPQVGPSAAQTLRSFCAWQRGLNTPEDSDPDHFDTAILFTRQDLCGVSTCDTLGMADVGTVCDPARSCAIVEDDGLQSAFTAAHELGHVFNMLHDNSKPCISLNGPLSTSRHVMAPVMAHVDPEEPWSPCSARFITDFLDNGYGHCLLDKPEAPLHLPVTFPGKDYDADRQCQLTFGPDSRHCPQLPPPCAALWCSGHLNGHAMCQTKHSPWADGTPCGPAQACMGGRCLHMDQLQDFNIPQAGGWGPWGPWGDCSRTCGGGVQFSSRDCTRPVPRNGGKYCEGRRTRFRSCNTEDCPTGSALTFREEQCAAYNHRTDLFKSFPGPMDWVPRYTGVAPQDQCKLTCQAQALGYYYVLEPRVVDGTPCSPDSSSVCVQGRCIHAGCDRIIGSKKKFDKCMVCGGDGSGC

[2] = target: MMP13 (human, UniProt P45452 104-471, limits assumed)
[3] = target: T2, ADAMTS5 (human, UniProt Q9UNA0 262-622, limits assumed)
T2 sequence (looked up): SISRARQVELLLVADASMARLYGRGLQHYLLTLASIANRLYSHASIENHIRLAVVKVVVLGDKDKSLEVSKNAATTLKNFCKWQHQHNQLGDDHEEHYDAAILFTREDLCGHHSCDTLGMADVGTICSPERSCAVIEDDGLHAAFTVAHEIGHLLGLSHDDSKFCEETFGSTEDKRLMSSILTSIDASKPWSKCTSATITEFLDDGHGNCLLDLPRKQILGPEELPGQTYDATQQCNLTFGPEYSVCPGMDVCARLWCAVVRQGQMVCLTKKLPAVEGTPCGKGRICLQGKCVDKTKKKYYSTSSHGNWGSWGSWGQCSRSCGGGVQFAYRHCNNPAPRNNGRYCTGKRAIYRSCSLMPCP

- Protease Inhibition (% of WT) [1]: 78 % of WT
- Protease Inhibition (% of WT) [2]: 170 % of WT
- Protease Inhibition (% of WT) [3]: 174 % of WT
B1: Variant A2M, bait region SEQ ID NO 85 (other)
chain: SVSGKPQYMVLVPSLLHTETTEKGCVLLSYLNETVTVSASLESVRGNRSLFTDLEAENDVLHCVAFAVPKSSSNEEVMFLTVQVKGPTQEFKKRTTVMVKNEDSLVFVQTDKSIYKPGQTVKFRVVSMDENFHPLNELIPLVYIQDPKGNRIAQWQSFQLEGGLKQFSFPLSSEPFQGSYKVVVQKKSGGRTEHPFTVEEFVLPKFEVQVTVPKIITILEEEMNVSVCGLYTYGKPVPGHVTVSICRKYSDASDCHGEDSQAFCEKFSGQLNSHGCFYQQVKTKVFQLKRKEYEMKLHTEAQIQEEGTVVELTGRQSSEITRTITKLSFVKVDSHFRQGIPFFGQVRLVDGKGVPIPNKVIFIRGNEANYYSNATTDEHGLVQFSINTTNVMGTSLTVRVNYKDRSPCYGYQWVSEEHEEAHHTAYLVFSPSKSFVHLEPMSHELPCGHTQTVQAHYILNGGTLLGLKKLSFYYLIMAKGGIVRTGTHGLLVKQEDMKGHFSISIPVKSDIAPVARLLIYAVLPTGDVIGDSAKYDVENCLANKVDLSFSPSQSLPASHAHLRVTAAPQSVCALRAVDQSVLLMKPDAELSASSVYNLLPEKDLTGFPGPLNDQDDEDCINRHNVYINGITYTPVSSTNEKDMYSFLEDMGLKAFTNSKIRKPKMCPQLEQYEMHGPEGLRVGIPENFFGVSELEGRGSKEEEGLGSKLRKYFPETWIWDLVVVNSAGVAEVGVTVPDTITEWKAGAFCLSEDAGLGISSTASLRAFQPFFVELTMPYSVIRGEAFTLKATVLNYLPKCIRVSVQLEASPAFLAVPVEKEQAPHCICANGRQTVSWAVTPKSLGNVNFTVSAEALESQELCGTEVPSVPEHGRKDTVIKPLLVEPEGLEKETTFNSLLCPSGGEVSEELSLKLPPNVVEESARASVSVLGDILGSAMQNTQNLLQMPYGCGEQNMVLFAPNIYVLDYLNETQQLTPEIKSKAIGYLNTGYQRQLNYKHYDGSYSTFGERYGRNQGNTWLTAFVLKTFAQARAYIFIDEAHITQALIWLSQRQKDNGCFRSSGSLLNNAIKGGVEDEVTLSAYITIALLEIPLTVTHPVVRNALFCLESAWKTAQEGDHGSHVYTKALLAYAFALAGNQDKRKEVLKSLNEEAVKKDNSVHWERPQKPKAPVGHFYEPQAPSAEVEMTSYVLLAYLTAQPAPTSEDLTSATNIVKWITKQQNAQGGFSSTQDTVVALHALSKYGAATFTRTGKAAQVTIQSSGTFSSKFQVDNNNRLLLQQVSLPELPGEYSMKVTGEGCVYLQTSLKYNILPEKEEFPFALGVQTLPQTCDEPKAHTSFQISLSVSYTGSRSASNMAIVDVKMVSGFIPLKPTVKMLERSNHVSRTEVSSNHVLIYLDKVSNQTLSLFFTVLQDVPVRDLKPAIVKVYDYYETDEFAIAEYNAPCSKDLGNADYKDDDDKGASHHHHHH
